{"source": "paper PMC4986892", "about": "(RNA, 2016)", "key": {"[1]": {"biological_target": "T1, S. pombe Dcp1:Dcp2RD decapping complex (S. pombe, UniProt Q9P805;O13828)", "T1 sequence 1": "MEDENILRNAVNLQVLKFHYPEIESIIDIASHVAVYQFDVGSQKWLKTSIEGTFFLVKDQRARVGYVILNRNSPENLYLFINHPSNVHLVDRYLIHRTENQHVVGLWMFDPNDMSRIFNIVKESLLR", "T1 sequence 2": "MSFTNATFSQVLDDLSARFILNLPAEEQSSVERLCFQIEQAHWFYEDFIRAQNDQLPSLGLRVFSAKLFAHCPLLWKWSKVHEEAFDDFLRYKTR", "experiment": "NMR titration"}, "[2]": {"biological_target": "T2, S. pombe Dcp1:Dcp2_(RD+CD) decapping complex (S. pombe, UniProt Q9P805;O13828)", "T2 sequence 1": "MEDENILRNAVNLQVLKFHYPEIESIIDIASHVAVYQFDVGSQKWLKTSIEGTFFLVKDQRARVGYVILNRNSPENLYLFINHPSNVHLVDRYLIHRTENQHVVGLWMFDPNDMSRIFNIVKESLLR", "T2 sequence 2": "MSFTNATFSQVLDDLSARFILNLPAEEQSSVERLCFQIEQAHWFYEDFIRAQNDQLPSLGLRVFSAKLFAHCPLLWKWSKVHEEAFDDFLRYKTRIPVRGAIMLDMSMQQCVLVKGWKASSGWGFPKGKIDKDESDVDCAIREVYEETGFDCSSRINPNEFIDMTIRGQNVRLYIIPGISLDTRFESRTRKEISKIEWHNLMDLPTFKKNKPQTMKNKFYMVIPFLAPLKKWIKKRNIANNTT", "experiment": "fluorescence polarisation"}, "[3]": {"biological_target": "T1, S. pombe Dcp1:Dcp2RD decapping complex", "experiment": "fluorescence polarisation"}, "[4]": {"biological_target": "T1, S. pombe Dcp1:Dcp2RD decapping complex", "experiment": "NMR titration", "remark": "listed apart in the source"}, "S. pombe Dcp1": {"biological_target": "T3, S. pombe Dcp1 (S. pombe, UniProt Q9P805)", "T3 sequence": "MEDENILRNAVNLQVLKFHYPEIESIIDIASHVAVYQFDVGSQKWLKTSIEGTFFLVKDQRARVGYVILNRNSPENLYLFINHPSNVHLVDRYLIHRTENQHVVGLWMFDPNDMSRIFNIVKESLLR", "experiment": "NMR titration"}}, "data": [{"binder": "GTEIQPIPPSIDPSLYVFP", "note": "[S. pombe Dhh1 (401–419)]", "values": [{"measurement": "binding result", "setting": "[1]", "value": "binds"}]}, {"binder": "Fluorescently labeled S. pombe Edc1 1–221 (S183C) (domain or fragment, 5-(iodoacetamido)-fluorescein on the cysteine introduced by S183C (labeling efficiency ~50%)) MQKDIGRRFQRNKKKINSKPGGAMVASSDVEFSLDGMSIMPQRDGNLQIPNFVKPKSTFATSNIGESNGKRNGDKVRGNRRSKSGHSSYAGSRISGGNSNSHLPSGVASAPAGLGIDKVAVGEVDSHLKSVSSYVSNSSGADRSFSSNSSSDTNSILYAGPTFTHSPAASNLPIPTFLHSPVCEKAEWQPPTGSVNSNMPFQFHQSSSVPSTPSEVAMGHN", "values": [{"measurement": "Kd", "setting": "[2]", "value": 250, "unit": "nM"}, {"measurement": "Kd", "setting": "[3]", "value": 143, "unit": "nM"}]}, {"binder": "APSDLATPQPSTFPQPPVESHSSFDIKQKILHLLNEGNEPKSPI (domain or fragment)", "note": "[S. pombe Dcp2 C-terminal region (269–312)]", "values": [{"measurement": "Kd", "setting": "[4]", "value": "310000 ± 110000", "unit": "nM"}]}, {"binder": "VSQGTDSRLVTKPTSTFPSPPSPPSSSVWNKREH", "note": "[S. pombe Xrn1 (1224–1257)]", "values": [{"measurement": "Kd", "setting": "[4]", "value": "640000 ± 170000", "unit": "nM"}]}, {"binder": "S. pombe Xrn1 (1201–1328) (domain or fragment) TNPQFVVNTRAGKNRKTNVSANNVSQGTDSRLVTKPTSTFPSPPSPPSSSVWNKREHHPKPFSLHQVPPPESLIHKSKSKFSKGNHHSTNGTQSIRGRGGKRGKPLRSKELNRKHDHIVQPMGKLQIN", "values": [{"measurement": "binding result", "setting": "[1]", "value": "binds"}]}, {"binder": "S. pombe Edc1 (144–215) (domain or fragment) SFSSNSSSDTNSILYAGPTFTHSPAASNLPIPTFLHSPVSEKAEWQPPTGSVNSNMPFQFHQSSSVPSTPSE", "values": [{"measurement": "Kd", "setting": "[2]", "value": 415, "unit": "nM"}]}, {"binder": "SFSSNSSSDTNSILYAGPTFTHSPAASNLPIPTFLHSP", "note": "[S. pombe Edc1 (144–181), as used for NMR]", "values": [{"measurement": "binding result", "setting": "[1]", "value": "binds"}]}, {"binder": "S. pombe Dcp2 C-terminal tail (267–350) (domain or fragment) STAPSDLATPQPSTFPQPPVESHSSFDIKQKILHLLNEGNEPKSPIQLPPVSNLPLNPPIQSSNSRLSHDNNSFDPFAYLGLDP", "values": [{"measurement": "binding result", "setting": "S. pombe Dcp1", "value": "binds"}]}]}
